Experimental data: publication PMC4764565

Molecular target: EphB2-KD-GFP (UniProt P54763)
Experiment: co-IP; anti-GFP antibody on ProteinA/G agarose, overnight, pre-cleared lysates of co-transfected HEK293 cells (10mM Tris-Cl pH 8, 137 mM NaCl, 2mM EDTA, 1% NP40); blot for Myc; in the ligand experiments cells were starved 2 hr in OPTIMEM and incubated 15 min at 37°C with pre-clustered Fc, eB2-Fc or eA3-Fc (1.5 μg/ml), Netrin-1 (250 ng/ml) or eB2-Fc+Netrin-1 before lysis

EphB2-KD-GFP, sequence (P54763 19-986): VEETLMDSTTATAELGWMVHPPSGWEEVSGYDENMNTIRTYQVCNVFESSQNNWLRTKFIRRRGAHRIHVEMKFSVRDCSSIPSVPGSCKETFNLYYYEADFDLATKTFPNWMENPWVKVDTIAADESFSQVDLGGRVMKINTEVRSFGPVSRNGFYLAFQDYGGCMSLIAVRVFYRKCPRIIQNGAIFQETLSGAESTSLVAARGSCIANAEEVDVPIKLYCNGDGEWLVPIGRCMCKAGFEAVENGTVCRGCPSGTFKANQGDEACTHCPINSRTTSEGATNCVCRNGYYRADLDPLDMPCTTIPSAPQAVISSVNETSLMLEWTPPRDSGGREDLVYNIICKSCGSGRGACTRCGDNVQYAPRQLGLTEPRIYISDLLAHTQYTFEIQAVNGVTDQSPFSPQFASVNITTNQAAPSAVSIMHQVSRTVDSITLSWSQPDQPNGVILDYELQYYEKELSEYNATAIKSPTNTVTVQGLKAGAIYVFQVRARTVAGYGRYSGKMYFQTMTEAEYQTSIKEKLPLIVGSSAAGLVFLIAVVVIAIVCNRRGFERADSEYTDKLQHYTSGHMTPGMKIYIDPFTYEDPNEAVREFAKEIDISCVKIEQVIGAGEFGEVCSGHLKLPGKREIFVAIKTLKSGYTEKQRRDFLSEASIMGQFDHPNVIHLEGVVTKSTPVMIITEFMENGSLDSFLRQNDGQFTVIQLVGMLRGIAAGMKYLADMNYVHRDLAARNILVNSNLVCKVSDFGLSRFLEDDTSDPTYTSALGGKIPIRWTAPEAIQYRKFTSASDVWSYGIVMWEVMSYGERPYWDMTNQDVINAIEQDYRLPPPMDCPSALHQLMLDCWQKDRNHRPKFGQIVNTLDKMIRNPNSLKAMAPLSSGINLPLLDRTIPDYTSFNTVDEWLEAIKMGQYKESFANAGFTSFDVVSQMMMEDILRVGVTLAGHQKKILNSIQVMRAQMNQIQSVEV
Unc5c-Myc, sequence (O08747 41-931): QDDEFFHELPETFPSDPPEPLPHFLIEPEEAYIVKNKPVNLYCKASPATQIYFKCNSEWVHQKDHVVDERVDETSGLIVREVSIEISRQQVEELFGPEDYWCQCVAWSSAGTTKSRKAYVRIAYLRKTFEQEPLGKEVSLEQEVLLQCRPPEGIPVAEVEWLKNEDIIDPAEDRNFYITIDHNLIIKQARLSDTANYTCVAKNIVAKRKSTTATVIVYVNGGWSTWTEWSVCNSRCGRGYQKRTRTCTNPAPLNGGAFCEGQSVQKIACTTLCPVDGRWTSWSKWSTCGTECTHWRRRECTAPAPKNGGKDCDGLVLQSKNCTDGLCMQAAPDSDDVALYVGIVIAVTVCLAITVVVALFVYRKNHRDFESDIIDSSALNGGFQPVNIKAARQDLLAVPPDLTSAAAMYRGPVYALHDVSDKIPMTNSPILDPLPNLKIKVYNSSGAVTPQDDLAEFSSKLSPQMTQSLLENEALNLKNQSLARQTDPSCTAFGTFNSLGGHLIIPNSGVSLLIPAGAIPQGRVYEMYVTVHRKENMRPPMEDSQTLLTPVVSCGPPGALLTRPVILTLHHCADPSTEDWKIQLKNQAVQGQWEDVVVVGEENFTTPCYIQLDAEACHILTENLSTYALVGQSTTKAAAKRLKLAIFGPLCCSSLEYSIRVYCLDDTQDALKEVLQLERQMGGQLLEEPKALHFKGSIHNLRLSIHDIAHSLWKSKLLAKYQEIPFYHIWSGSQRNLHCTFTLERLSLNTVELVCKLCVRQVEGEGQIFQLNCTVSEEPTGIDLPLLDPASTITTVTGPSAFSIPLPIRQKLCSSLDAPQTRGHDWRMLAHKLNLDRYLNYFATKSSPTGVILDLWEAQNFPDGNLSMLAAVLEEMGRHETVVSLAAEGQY

percent reduction of the interaction against wild-type EphB2-GFP: 67%
Substance: Unc5c-Myc (from UniProt O08747 41-931) (receptor)
